According to US20250074943A1 (Amgen, published 2025):
Where “and” joins values, the source holds several entries; their conditions need not be identical. Equal values may be shown once. Bridge positions count the residues as written; N and C are the ends. Ends that are not written are not given here.

How the values were obtained:
[1] = target: T1, recombinant DLL3 ectodomain (rhDLL3-Fc) (human, UniProt Q9NYJ7 27-492, biotinylated (NHS-LC-LC-biotin) in the BLI and SPR assays); test: phage ELISA on rDLL3-Fc
T1 construct: also called rDLL3-Fc; recombinant human DLL3 (rDLL3); not shown: Fc part
T1 sequence: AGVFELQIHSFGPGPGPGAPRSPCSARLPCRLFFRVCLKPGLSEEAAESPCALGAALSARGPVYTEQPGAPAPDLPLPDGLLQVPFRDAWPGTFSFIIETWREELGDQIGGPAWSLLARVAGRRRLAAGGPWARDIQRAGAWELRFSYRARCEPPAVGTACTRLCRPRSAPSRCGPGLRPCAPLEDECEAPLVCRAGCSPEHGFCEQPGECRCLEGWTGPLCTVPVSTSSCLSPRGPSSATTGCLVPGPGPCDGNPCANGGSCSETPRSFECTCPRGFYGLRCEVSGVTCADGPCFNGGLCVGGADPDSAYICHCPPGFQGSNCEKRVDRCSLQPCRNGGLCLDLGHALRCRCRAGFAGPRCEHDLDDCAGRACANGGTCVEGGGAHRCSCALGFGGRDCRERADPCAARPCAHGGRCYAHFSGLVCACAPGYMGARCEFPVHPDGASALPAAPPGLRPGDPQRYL

[2] = target: T2, human DLL3 expressed on the surface of cells (human, UniProt Q9NYJ7 27-618); test: phage cell ELISA/FACS on DLL3-expressing cells;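 note: phages incubated 1 h at room temperature with cells overexpressing human DLL3, read by flow cytometry fluorescence, then fixed-cell ELISA with anti-M13-HRP at A370 nm, parental cells alongside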
T2 construct: Stably transfected CHO or HEK293 cells; also called huDLL3; hDLL3
T2 sequence: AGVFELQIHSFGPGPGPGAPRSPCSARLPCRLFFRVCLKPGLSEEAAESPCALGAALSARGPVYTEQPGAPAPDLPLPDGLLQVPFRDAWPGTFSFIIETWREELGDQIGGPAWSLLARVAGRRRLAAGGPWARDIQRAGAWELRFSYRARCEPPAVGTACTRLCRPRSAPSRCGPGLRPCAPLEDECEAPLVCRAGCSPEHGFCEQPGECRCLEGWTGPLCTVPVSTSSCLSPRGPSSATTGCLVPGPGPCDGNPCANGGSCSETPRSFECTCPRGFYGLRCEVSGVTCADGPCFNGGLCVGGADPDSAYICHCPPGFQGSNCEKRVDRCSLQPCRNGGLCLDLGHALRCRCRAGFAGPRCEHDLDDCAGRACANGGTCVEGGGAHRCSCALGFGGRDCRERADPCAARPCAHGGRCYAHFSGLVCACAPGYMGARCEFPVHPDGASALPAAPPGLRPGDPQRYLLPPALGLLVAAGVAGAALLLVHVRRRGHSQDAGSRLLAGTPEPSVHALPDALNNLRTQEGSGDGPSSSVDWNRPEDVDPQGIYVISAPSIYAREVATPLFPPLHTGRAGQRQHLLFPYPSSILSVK
Method: The pools of phages were also screened for their binding to cells overexpressing human DLL3 on their surface. Cells were detached, counted and re-suspended at 1.8×10⁶ cell/ml in FACS buffer containing 2% FBS. Pre-blocked phages were then added to the cells and incubated for 1 hr at room temperature. […] Cells were then washed and re-suspended into FACS buffer. Fluorescence was acquired using a flow cytometer (FACS Canto/Becton Dickinson).
Phage clones with signal higher than four-fold above the background were further tested for their binding to DLL3 on the surface of cells expressing DLL3 by cell ELISA. Briefly, parental cells and cells overexpressing DLL3 were plated on 96 well plate the day before the assay. The cells were then fixed and washed before the addition of pre-blocked phages as previously described. The cells were then washed and anti-M13-HRP was added. The signal was measured using a Multiskan Ascent (Thermo) ELISA reader at A370 nm.

[3] = target: T1, recombinant DLL3 ectodomain (rhDLL3-Fc); test: BLI (Octet), biotinylated rhDLL3-Fc on streptavidin sensors
Method: Binding kinetic assays were performed using Bio-layer interferometry (BLI) technology. The recombinant DLL3 ectodomain (rhDLL3-Fc) was biotinylated using EZ-Link Sulfo-NHS-LC-LC-Biotin Kit according to the manufacturer's protocol (Pierce by Thermo Fisher Scientific). The recombinant protein was incubated with an excess of NHS-LC-LC Biotin ester, in a molar ratio of 1:3 (protein: biotin), at 25° C. for 90 min. The un-reacted biotin ester was removed by subsequent buffer exchange on 0.5 ml Zeba spin desalting columns 7K MWCO (Pierce by Thermo Fisher Scientific).

| Binder | binding result [1] | binding result [2] | Kd [3] | RT (residence time) [3] |
| --- | --- | --- | --- | --- |
| AETVEFWDCWGNTDDWTCTW (not shown: M13 pIII coat protein) [SEQ ID NO 41] | binds | binds |  |  |
| AETVEFYGCKWDWKGWTCAW-NH2 (disulfide 9-18 (inferred)) [PepSP1168] |  |  | 568 nM | 44 s |
| AETVEFYGCKWDWKGWTCAW (not shown: M13 pIII coat protein) [SEQ ID NO 57] | binds | binds |  |  |
| AETVEFDYCLWAPDAWGCQN-NH2 (disulfide 9-18) [PepSP1159] |  |  | 900 nM | 6 s |
| AETVEFYGCYGDRNDYTCTW-NH2 (disulfide 9-18 (inferred)) [PepSP1178] |  |  | 147 nM | 75.9 s |
| AETVEFDGCKGDWYEWTCWW-NH2 (disulfide 9-18 (inferred)) [PepSP1164] |  |  | 125 nM | 125 s |
| AETVEFWSCHYSYWTVSCGT (not shown: M13 pIII coat protein) [SEQ ID NO 48] | binds | binds |  |  |
| AETVEFWTCHGNADEWTCSW (not shown: M13 pIII coat protein) [SEQ ID NO 52] | binds | binds |  |  |
| AETVEFRGCTGNVYDWTCVW-NH2 (disulfide 9-18 (inferred)) [PepSP1160] |  |  | 494 nM | 47 s |
| AETVEFYGCTGDAYEYTCTW (not shown: M13 pIII coat protein) [SEQ ID NO 45] | binds | binds |  |  |
| AETVEYWRCDWYEETVACGT (not shown: M13 pIII coat protein) [SEQ ID NO 47] | binds | binds |  |  |
| AETVEFWTCHGNADEWTCSW-NH2 (disulfide 9-18 (inferred)) [PepSP1162] |  |  | 159 nM | 51 s |
| AETVEFWTCYWTEGVSGCRW-NH2 (disulfide 9-18 (inferred)) [PepSP1151] |  |  | 125 nM | 167 s |
| AETVEFLGCHGDNSEWTCVW-NH2 (disulfide 9-18 (inferred)) [PepSP1163] |  |  | 69 nM and 68.7 nM | 167 s |
| AETVEFWSCKWWGGAADEYTYSCGW-NH2 (disulfide 9-23 (inferred)) [PepSP1182] |  |  | 75.8 nM | 96.6 s |
| AETVEFDGCKGDWYEWTCWW (not shown: M13 pIII coat protein) [SEQ ID NO 53] | binds | binds |  |  |
| AETVEFDYCYGDVEEWTCVY-NH2 (disulfide 9-18 (inferred)) [PepSP1166] |  |  | 145 nM | 48 s |
| AETVEFRGCTGNVYDWTCVW (not shown: M13 pIII coat protein) [SEQ ID NO 51] | binds | binds |  |  |
| AETVEFYGCSVNADGWTCSW-NH2 (disulfide 9-18 (inferred)) [PepSP1170] |  |  | 166 nM | 43 s |

| Binder | binding result [1] | binding result [2] | Kd [3] | RT (residence time) [3] |
| --- | --- | --- | --- | --- |
| WDCWGNTDDWTCTW-NH2 (disulfide 3-12 (inferred), PepSP1161 without AETVEF) [PepSP1269] |  |  | 181 nM | 20 s |
| AETVEFYGCETYSGGWTCLW-NH2 (disulfide 9-18 (inferred)) [PepSP1167] |  |  | 399 nM | 47 s |
| AETVEFWSCKWWGGAADEYTYSCGW (not shown: M13 pIII coat protein) [SEQ ID NO 44] | binds | binds |  |  |
| WGCTGTWGNETCWW-NH2 (disulfide 3-12 (inferred), PepSP1146 without AETVEF) [PepSP1213] |  |  | 7500 nM | 1.36 s |
| AETVEYWRCDWYEETVACGT-NH2 (disulfide 9-18 (inferred)) [PepSP1155] |  |  | 155 nM | 177 s |
| AETVEFLGCHGDNSEWTCVW (not shown: M13 pIII coat protein) [SEQ ID NO 43] | binds | binds |  |  |
| AETVEFYGCQYYGWDYTCAW-NH2 (disulfide 9-18 (inferred)) [PepSP1176] |  |  | 207 nM | 67 s |
| AETVEFYGCRGGDGEWTCVW (not shown: M13 pIII coat protein) [SEQ ID NO 54] | binds | binds |  |  |
| AETVEFDYCYGDVEEWTCVY (not shown: M13 pIII coat protein) [SEQ ID NO 55] | binds | binds |  |  |
| AETVEFYGCRGGDGEWTCVW-NH2 (disulfide 9-18 (inferred)) [PepSP1165] |  |  | 263 nM | 66 s |
| AETVEFYGCWGNYNDYTCSW-NH2 (disulfide 9-18 (inferred)) [PepSP1177] |  |  | 236 nM | 52 s |
| AETVEFYGCYGEQEQWTCLW-NH2 (disulfide 9-18 (inferred)) [PepSP1173] |  |  | 106 nM | 101 s |
| AETVEFWSCHYSYWTVSCGT-NH2 (disulfide 9-18 (inferred)) [PepSP1157] |  |  | 123 nM | 89 s |
| AETVEFWTCYWTEGVSGCRW (not shown: M13 pIII coat protein) [SEQ ID NO 46] | binds | binds |  |  |
| AETVEFYGCSMDWRGVTCAW-NH2 (disulfide 9-18 (inferred)) [PepSP1158] |  |  | 643 nM | 31 s |
| AETVEFYGCYGDRNDYTCTW (not shown: M13 pIII coat protein) [SEQ ID NO 42] | binds | binds |  |  |
| AETVEFYGCETYSGGWTCLW (not shown: M13 pIII coat protein) [SEQ ID NO 56] | binds | binds |  |  |
| AETVEFYGCSMDWRGVTCAW (not shown: M13 pIII coat protein) [SEQ ID NO 49] | binds | binds |  |  |
| AETVEFYGCTGDAYEYTCTW-NH2 (disulfide 9-18 (inferred)) [PepSP1147] |  |  | 59 nM | 65.6 s |
